Source: the supplement of paper PMC9112550, “Optimization of the antimicrobial peptide Bac7 by deep mutational scanning” (BMC Biology, 2022)
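Also: peptides expressed intracellularly from a pBAD plasmid library in pooled LB shake-flask culture, induced with 0.3% L-arabinose, DNA abundance read by NGS, three biological replicates, DESeq2 with apeglm shrinkage.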

The sequences below were run on Escherichia coli TOP10 (assay: shrunken log2 fold change of peptide-encoding DNA abundance (4.5 h post-induction vs induction); higher = less antimicrobial activity (less host growth inhibition)). Conditions: time post-induction: 4.5 h; library: site-saturation at positions 5, 18, 19, 20.
RRIRMRPPRLPRPRPRPHNTPRP was tested, and the “shrunken log2 fold change” value was -0.168. RRIRMRPPRLPRPRPRPHPQPRP was tested, and the “shrunken log2 fold change” value was 0.427. RRIRMRPPRLPRPRPRPHPRPRP was tested, and the “shrunken log2 fold change” value was 1.04. In the case of RRIRMRPPRLPRPRPRPHQFPRP, the “shrunken log2 fold change” value was -0.0236. For RRIRMRPPRLPRPRPRPHQVPRP, the “shrunken log2 fold change” value was 0.423. With RRIRMRPPRLPRPRPRPHREPRP the “shrunken log2 fold change” value was 0.104. RRIRMRPPRLPRPRPRPHRYPRP was tested, and the “shrunken log2 fold change” value was -0.144. In the case of RRIRMRPPRLPRPRPRPHSYPRP, the “shrunken log2 fold change” value was -0.0152. With RRIRMRPPRLPRPRPRPHTLPRP the “shrunken log2 fold change” value was -0.119. With RRIRMRPPRLPRPRPRPHTWPRP the “shrunken log2 fold change” value was -0.0904. With RRIRMRPPRLPRPRPRPHVAPRP the “shrunken log2 fold change” value was 0.00497. RRIRMRPPRLPRPRPRPHWHPRP was tested, and the “shrunken log2 fold change” value was 0.0139. RRIRMRPPRLPRPRPRPHWRPRP was tested, and the “shrunken log2 fold change” value was 0.0569. For RRIRMRPPRLPRPRPRPHYHPRP, the “shrunken log2 fold change” value was -0.493. For RRIRMRPPRLPRPRPRPHYVPRP, the “shrunken log2 fold change” value was -0.0815. With RRIRMRPPRLPRPRPRPIAAPRP the “shrunken log2 fold change” value was 2.71. In the case of RRIRMRPPRLPRPRPRPICLPRP, the “shrunken log2 fold change” value was -0.322. RRIRMRPPRLPRPRPRPICVPRP was tested, and the “shrunken log2 fold change” value was 0.196. For RRIRMRPPRLPRPRPRPIDMPRP, the “shrunken log2 fold change” value was -0.0621. RRIRMRPPRLPRPRPRPIEMPRP was tested, and the “shrunken log2 fold change” value was -0.0608. In the case of RRIRMRPPRLPRPRPRPIENPRP, the “shrunken log2 fold change” value was -0.142. For RRIRMRPPRLPRPRPRPIFCPRP, the “shrunken log2 fold change” value was -0.0454. With RRIRMRPPRLPRPRPRPIFLPRP the “shrunken log2 fold change” value was -0.227. In the case of RRIRMRPPRLPRPRPRPIFQPRP, the “shrunken log2 fold change” value was -0.115. In the case of RRIRMRPPRLPRPRPRPIGFPRP, the “shrunken log2 fold change” value was -0.01. With RRIRMRPPRLPRPRPRPIGGPRP the “shrunken log2 fold change” value was 0.0689. For RRIRMRPPRLPRPRPRPIHMPRP, the “shrunken log2 fold change” value was -0.221. For RRIRMRPPRLPRPRPRPIKNPRP, the “shrunken log2 fold change” value was 0.387. For RRIRMRPPRLPRPRPRPIKYPRP, the “shrunken log2 fold change” value was 0.188. In the case of RRIRMRPPRLPRPRPRPIMIPRP, the “shrunken log2 fold change” value was -0.16. RRIRMRPPRLPRPRPRPIMRPRP was tested, and the “shrunken log2 fold change” value was 0.537. In the case of RRIRMRPPRLPRPRPRPINFPRP, the “shrunken log2 fold change” value was -0.0648. With RRIRMRPPRLPRPRPRPINGPRP the “shrunken log2 fold change” value was 0.0854. With RRIRMRPPRLPRPRPRPIQKPRP the “shrunken log2 fold change” value was 0.0394. In the case of RRIRMRPPRLPRPRPRPIRQPRP, the “shrunken log2 fold change” value was -0.0521. With RRIRMRPPRLPRPRPRPISLPRP the “shrunken log2 fold change” value was 0.0356. RRIRMRPPRLPRPRPRPITNPRP was tested, and the “shrunken log2 fold change” value was -0.192. With RRIRMRPPRLPRPRPRPITTPRP the “shrunken log2 fold change” value was -0.0401. For RRIRMRPPRLPRPRPRPITVPRP, the “shrunken log2 fold change” value was 0.0226. With RRIRMRPPRLPRPRPRPITWPRP the “shrunken log2 fold change” value was -0.327. With RRIRMRPPRLPRPRPRPIVWPRP the “shrunken log2 fold change” value was -0.0994. With RRIRMRPPRLPRPRPRPIYIPRP the “shrunken log2 fold change” value was -0.156. In the case of RRIRMRPPRLPRPRPRPIYNPRP, the “shrunken log2 fold change” value was -0.347. For RRIRMRPPRLPRPRPRPKAHPRP, the “shrunken log2 fold change” value was 0.892. With RRIRMRPPRLPRPRPRPKARPRP the “shrunken log2 fold change” value was 1.61. With RRIRMRPPRLPRPRPRPKCGPRP the “shrunken log2 fold change” value was 0.574. With RRIRMRPPRLPRPRPRPKCQPRP the “shrunken log2 fold change” value was 1.33. In the case of RRIRMRPPRLPRPRPRPKDIPRP, the “shrunken log2 fold change” value was -0.0934. For RRIRMRPPRLPRPRPRPKEEPRP, the “shrunken log2 fold change” value was 0.0115. In the case of RRIRMRPPRLPRPRPRPKFQPRP, the “shrunken log2 fold change” value was 0.549. With RRIRMRPPRLPRPRPRPKGQPRP the “shrunken log2 fold change” value was 1.28. RRIRMRPPRLPRPRPRPKHTPRP was tested, and the “shrunken log2 fold change” value was 1.93. RRIRMRPPRLPRPRPRPKHWPRP was tested, and the “shrunken log2 fold change” value was 0.91. In the case of RRIRMRPPRLPRPRPRPKIYPRP, the “shrunken log2 fold change” value was -0.107. For RRIRMRPPRLPRPRPRPKKMPRP, the “shrunken log2 fold change” value was 0.249. In the case of RRIRMRPPRLPRPRPRPKMAPRP, the “shrunken log2 fold change” value was 2.29. RRIRMRPPRLPRPRPRPKMFPRP was tested, and the “shrunken log2 fold change” value was 0.0019. In the case of RRIRMRPPRLPRPRPRPKMWPRP, the “shrunken log2 fold change” value was 0.643. RRIRMRPPRLPRPRPRPKNKPRP was tested, and the “shrunken log2 fold change” value was 0.408. With RRIRMRPPRLPRPRPRPKPKPRP the “shrunken log2 fold change” value was 0.476. For RRIRMRPPRLPRPRPRPKQHPRP, the “shrunken log2 fold change” value was 0.675. With RRIRMRPPRLPRPRPRPKRGPRP the “shrunken log2 fold change” value was -0.0058. With RRIRMRPPRLPRPRPRPKSDPRP the “shrunken log2 fold change” value was 0.466. For RRIRMRPPRLPRPRPRPKYAPRP, the “shrunken log2 fold change” value was 0.928. For RRIRMRPPRLPRPRPRPKYEPRP, the “shrunken log2 fold change” value was 0.741. In the case of RRIRMRPPRLPRPRPRPKYGPRP, the “shrunken log2 fold change” value was 0.0382. For RRIRMRPPRLPRPRPRPLCSPRP, the “shrunken log2 fold change” value was -0.0295. RRIRMRPPRLPRPRPRPLFCPRP was tested, and the “shrunken log2 fold change” value was 0.188. RRIRMRPPRLPRPRPRPLFIPRP was tested, and the “shrunken log2 fold change” value was -0.643. For RRIRMRPPRLPRPRPRPLFPPRP, the “shrunken log2 fold change” value was 0.152. With RRIRMRPPRLPRPRPRPLHNPRP the “shrunken log2 fold change” value was -0.127. With RRIRMRPPRLPRPRPRPLKEPRP the “shrunken log2 fold change” value was 0.701. For RRIRMRPPRLPRPRPRPLLEPRP, the “shrunken log2 fold change” value was 2.21. RRIRMRPPRLPRPRPRPLLGPRP was tested, and the “shrunken log2 fold change” value was 0.495. For RRIRMRPPRLPRPRPRPLLTPRP, the “shrunken log2 fold change” value was 2.33.
